Assay [1] has as its system MDAMB-231 (breast cancer), CL1-5 (lung cancer), SKOV3 (ovary cancer) and SAS (oral cancer). The assay is described as follows: ELISA and Western blot binding on other cancer cell lines. It counts as cell-based, human. To be noted: MDAMB-231, CL1-5, SKOV3, SAS. On the procedure:
Cells were extracted with RIPA buffer and the supernatants were immunoprecipitated using either anti-CHC antibody, Pa65-2, mAb X-22 (Affinity), or anti-HIF-1α antibody (BD), then analyzed by immunoblotting. The signals were developed using enhanced chemiluminescence reagents (ECL) (Thermo).
Cells were cultured in 96-well polystyrene plates for 3 days and then fixed with 2% paraformaldehyde. After blocking and washing twice with PBS/0.1 % Tween 20 (PBST0.1), the hybridoma supernatants were added and the plates were incubated for 2 h at room temperature. This was followed by washing and incubating with horseradish peroxidase (HRP)-conjugated goat anti-mouse IgG for 1 h. The colorimetric reaction was developed with the substrate ortho-phenylene-diamine (OPD) according to the manufacturer's instructions (Sigma), and was stopped by adding 3 N HCl. Absorbance at 490 nm was measured using a microplate reader. Each control and test group was tested in triplicate. Each experiment was repeated at least three times. […] The stained cells were washed twice and fluorescence signals were measured using a FACScan (BD).
3×10^3 cells were cultured into each well of 96-well polystyrene plates for 3 days and fixed with 2% paraformaldehyde. […] Absorbance at 490 nm was measured using a microplate reader. […]
(ELISA stands for enzyme-linked immunosorbent assay.)

Assay [2] concerns human pancreatic cancer tissue array. The assay is described as follows: Immunohistochemistry of Pa65-2 on human pancreatic cancer tissue arrays. The note with it: for Labeling Score: score 0-4. The protocol: The human pancreatic cancer gene expression arrays (Origene) were analyzed by an ABI9600 thermocycler (Applied Biosystems). Tissue arrays were purchased from Pantomics Inc. Tissue sections were stained with antibodies specific for CHC (Pa65-2), VEGF (GeneTex), HIF-1α (Millipore), NM-IgG, and UEA-1-FITC (Vector). Quantification of DAB intensity was by HistoQuest software (TissueGnostics). The protocol was approved by the institutional Review Board of Human Subjects Research Ethics Committee of Academia Sinica (Taipei).
We modified the “Quick Score” methods by reducing the original scales (Siegel et al. (2012) “Cancer statistics 2012” CA Cancer J Clin, 62, 10-29). Two indices were used in evaluating the staining results of tumors. Labeling Index (LI) indicates the number of tumor cells that were immunostained (or “positive cells”) as a proportion of the overall number of cells. A score on a scale of 0-2 was assigned; 0-10%=0, 11-49%=1, 50-100% =2. The second index is the Intensity Index (II), which measures the average intensity of the immunostaining. A score on a scale of 0-2 was assigned; no staining=0, weak staining=1, and strong staining=2. The scores from these two indices were added to give the tumor Labeling Score (LS), which ranges from 0-4.

The next assay relates to MIA PaCa-2 cells. Briefly: MTT cell proliferation assay. It counts as cell-based, human. To be noted: 50 μg/ml for 3 days. On the procedure: Cells were cultured in 96-wells plates. To reduce cancer growth, the cells were culture in Dulbecco's modified Eagle's medium (DMEM) containing 50 μg/ml Pa65-2 or NM-IgG. After incubating for 0, 1, 2, 3 days, the cells were subjected to an MTT assay. The absorbance was determined with a microplate reader at 540 nm. Each assay was repeated for three times.
(Formazan colour is commonly taken as a measure of viable cells.)

The subject of assay [3] is HUVECs. The assay is described as follows: Inhibition of HUVEC VEGF internalization. To be noted: 50 μg/ml, VEGF-A 40 ng/ml. Type of assay: cell-based, human. The protocol:
HUVEC were washed with serum-free medium, incubated in 1% BSA in serum-free medium at 37° C., and pretreated with Pa65-2 or NM-IgG (50 μg/ml) at 37° C. They were then incubated with or without VEGF-A (40 ng/ml) at 37° C. or 4° C. After cells were washed, fixed and made permeable. The permeable cells were incubated with anti VEGF-A antibody (A-20, Santa Cruz). Finally, cells were stained using Rhodamine-conjugated secondary antibodies.

Assay [4] relates to HUVECs. The assay is described as follows: Apoptosis in HUVEC by TUNEL staining. Type of assay: cell-based, human. The protocol:
(§1) CD31 staining and TUNEL assays were carried out as described previously. The slides were then visualized under a fluorescent microscope and analyzed with MetaMorph software.

Assay [5] deals with MIA PaCa-2-derived pancreatic cancer xenografts. Briefly: Antitumor efficacy of Pa65-2 in pancreatic cancer xenografts. Type of assay: in vivo, NOD/SCID mice. The protocol:
All animal experiments were performed as per the guidelines of the National Laboratory Animal Center. The protocol was approved by the Committee on the Ethics of Animal Experiments of Academia Sinica (Taipei). A xenograft model was generated by injecting NOD/SCID mice with MIA PaCa-2 cells transduced with either CHC shRNA or control vector. The two kinds of transduced cells were injected into different lateral sides of the hind limbs of eight animals at the same time. For analysis of antitumor efficacy of Pa65-2, NOD/SCID mice bearing MIA PaCa-2-derived pancreatic cancer xenografts (˜50 mm^3) were intravenously injected in the tail vein with Pa65-2, or gemcitabine, or NM-IgG, or equivalent
volumes of PBS. Tumors were measured by calipers every three days, and mice were observed routinely for weight loss as a symptom of drug toxicity. The tumor volumes were calculated as length×(width)^2×0.52. Animals were treated following the guidelines established by Academia Sinica (Taipei).
as §1

We go through 1 molecule from patent US8969530B2, “Anti-clathrin heavy chain monoclonal antibody for inhibition of tumor angiogenesis and growth and application thereof” (Academia Sinica, priority 2011, dated 2015).

B1: Pa65-2: monoclonal antibody that recognizes human clathrin heavy chain (CHC); VH SEQ ID NO: 2, VL SEQ ID NO: 3 (antibody, listed as Homo sapiens, V domains shown)
VH: EVKLVESGGGLVKPGGSLNISCAASGFTFSNYVMSWVRQTPEKRLEWVATISSGDNYMYYPDSVKGRFTISSDNAKNTLFLQMSSLRSEDTALYYCARHFDNYEGNSMDYWGQGTSVTVSSAKTTPPSDYPLA
VL: DIVLTQSPATLSVTPGDSVSLSCRASQSIRSNLHWYQQKSHESPRLLIKYASQSISGIPSRFSGSGSGTDFILSINSVATEDFGVYFCQQSNSWPLTFGAGTKLELKRADAAPTVS
On to B1, for which the “binding to other types of cancer cell lines” value in assay [1] is “can also bind”. The “staining of pancreatic cancer tissues” value in assay [2] (46 specimens, tissue array) is “positively stained”. Also, the “Labeling Score” value in assay [2] (Adenocarcinoma I, stage T2N0M0) was 3; in assay [2] (Adenocarcinoma I, stage T2N1M0), 2; in assay [2] (Adenocarcinoma I, stage T3N0M0), 3; in assay [2] (Adenocarcinoma I, stage T3N1M0) it was 3; in assay [2] (Adenocarcinoma II, stage T2N0M0), 2; in assay [2] (Adenocarcinoma II, stage T3N0M0) it was 3. In addition, the “Labeling Score” value is given as 3 in assay [2] (Adenocarcinoma II, stage T3N1MX); 4 in assay [2] (Adenocarcinoma II, stage T4N1M1); 3 in assay [2] (Adenocarcinoma III, stage T3N0M0); 3 in assay [2] (Adenocarcinoma III, stage T3N1MX); 0 in assay [2] (Normal Pancreas). In addition, the “staining of normal pancreatic tissues” value in assay [2] (two normal pancreatic tissues, tissue array) is listed as “two normal pancreatic tissues were not”. Moreover, the cancer cell proliferation entry with MIA PaCa-2 cells is “inhibited”. For the same molecule, the VEGF internalization result with HUVECs [3] is on record as “suppressed VEGF internalization”. Besides, the “apoptosis in HUVECs” value in the assay with HUVECs [4] was “induced apoptosis”. Further, in assay [5] (10 mg/kg i.v. every three days, day 36, n=6, P<0.05), the “average tumor volume smaller than the control groups” value was “about 2 fold”. Besides, the “blood vessels in tumor sections” value in assay [5] (CD31 staining, P<0.05) is “decreased”. Besides, in assay [5] (Pa65-2 10 mg/kg versus gemcitabine 15 mg/kg, i.v.), the “inhibitory effect on tumor growth compared with gemcitabine” value is recorded as “equivalent effects”. Besides, the “apoptotic cells in tumor sections” value in assay [5] (TUNEL, n=6, P<0.01) is on record as “increased”.
